According to the supplement of paper PMC10567573:

B1: RSPH3 (parent)
chain: QRLEEQERRHREEKERRKKQQWEI
B2: KRT18 (parent)
chain: PQVRDWSHYFKIIEDLRAQIFANT

Variants of: B1
Experiment: protein stability index of a GFP-peptide fusion (GPS, HEK-293T) (PSI 1-6); higher = more stable
Conditions: c terminus: a fixed tail appended
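Note: lentivirally expressed fusions sorted by FACS into six bins by GFP to DsRed ratio, PSI derived from sequencing read proportions per bin multiplied by bin number.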

Protein stability index: each site, then its substitutions
I24: W 4.51 | N 4.68 | Q 4.39 | M 4.56 | P 5 | R 5.14 | G 4.83 | L 4.78 | V 5.01 | Y 4.82 | T 4.3 | K 4.25 | D 5 | S 4.76 | F 4.34 | H 4.46 | E 5.04

Variants of: B2
Experiment: as above
Conditions: c terminus: a fixed tail appended

Protein stability index of substitutions, site by site:
E14: W 2.79 | A 2 | H 2.69 | I 2.46 | T 2 | K 2.77 | Y 1.9 | N 2.03 | S 2.26 | M 2.32 | V 2.11 | R 2.27 | D 2.28 | F 1.59 | C 2.33 | P 1.67 | Q 2.64 | G 2 | L 1.39
Q2: A 2.59 | D 2.04 | F 2.55 | K 2.08 | S 2.42 | H 2.17 | G 2.29 | L 3.67 | Y 2.34 | V 3.24 | I 2.92 | E 2.63 | T 2.31 | N 2.41 | M 3.56 | P 3.51 | W 1.82 | R 1.77 | C 2.67
D15: E 2.28 | Q 1.71 | W 1.61 | P 1.4 | F 1.58 | R 1.89 | G 2.16 | T 1.78 | I 1.74 | L 2.69 | S 2.09 | N 2.1 | M 2.87 | Y 3.62 | H 1.57 | A 2.47 | K 3.02 | V 2.32
I12: S 2.3 | P 2.24 | N 3.55 | V 2.04 | L 2.27 | D 3.17 | H 2.36 | Q 2.41 | R 2.55 | A 2.53 | K 1.85 | F 1.9 | M 1.92 | G 2.72 | C 2.38 | Y 2.2 | E 2.45 | W 3.05 | T 2.78
F10: A 2.29 | H 2.57 | K 1.86 | P 3.18 | S 2.15 | N 1.89 | M 2.56 | T 3.01 | C 2.25 | I 2.23 | G 2.4 | D 1.9 | E 2.26 | Q 3.22 | W 2.7 | R 2.58 | Y 1.54 | V 1.69 | L 2.17
K11: N 1.49 | W 3.08 | S 2.75 | T 1.98 | V 2.99 | D 1.84 | C 2.12 | Q 2.5 | P 1.55 | I 2.25 | E 1.52 | L 3.02 | R 2.11 | M 1.42 | G 1.74 | Y 1.35 | A 2.1 | H 2.25
R4: Y 1.61 | N 2.63 | A 3.02 | V 2.09 | S 2.61 | C 1.99 | T 2.13 | W 2.58 | Q 2.53 | D 2.84 | E 2.43 | I 2.32 | M 2.69 | L 1.93 | F 1.6 | P 2.47 | K 2.29 | H 2.25 | G 2.37
V3: N 2.06 | C 2.41 | Y 2.69 | S 2.44 | H 1.94 | K 1.79 | L 2.88 | D 2.39 | G 2.13 | F 2.24 | A 1.71 | E 3.61 | P 2.46 | I 2.05 | M 1.84 | Q 2.52 | T 2.24 | W 1.7
I13: P 2.63 | Y 1.72 | K 1.79 | D 2.9 | W 3.46 | V 2.87 | E 2.32 | R 2.69 | H 2.16 | C 2.3 | M 1.62 | T 2.54 | F 2.12 | N 2.38 | G 2.9 | A 2.77 | L 2.27 | S 2.15 | Q 2.75
S7: H 2.36 | G 3.02 | A 2.53 | N 2.08 | W 1.95 | E 2.12 | P 2.23 | Q 3.49 | T 2.82 | M 2.18 | K 2.36 | F 1.41 | I 2.13 | V 2.53 | Y 1.61 | R 1.99 | L 1.52 | C 1.94
D5: Y 2.15 | L 2.88 | S 2.5 | H 1.68 | G 1.99 | F 1.88 | A 2.93 | Q 2.44 | N 2.16 | C 2.2 | E 2.8 | I 2.46 | T 2.53 | W 1.63 | P 1.87 | M 2.57 | K 3.2 | V 2.56 | R 3.09
Y9: F 1.94 | L 2.17 | W 2.5 | N 2.71 | A 2.24 | K 1.76 | D 2.95 | Q 2.42 | R 2.25 | E 2.55 | T 1.81 | C 1.97 | H 2.5 | V 2.48 | G 1.75 | I 2.12 | P 2.36 | S 2.56 | M 1.89
L16: G 2.32 | T 2.09 | W 2.05 | S 2.03 | E 2.63 | I 2.03 | V 1.96 | K 1.85 | M 2.08 | H 2.13 | R 2.33 | A 2.17 | C 1.7 | D 2.22 | P 2.38 | N 2.62 | Q 2.47 | F 1.53 | Y 2.26
R17: A 2.14 | D 2.4 | L 1.96 | M 2.12 | C 1.62 | T 2.27 | P 2.15 | K 3.07 | F 1.54 | V 1.89 | Q 2.19 | H 2.58 | G 2.3 | E 2.61 | N 2.64 | I 2.61 | S 2.02
P1: W 2.86 | D 2.83 | S 2.02 | Q 2.38 | N 2.5 | I 2.24 | A 1.31 | L 1.73 | K 2.42 | R 2.86 | G 1.94 | E 2.13 | F 1.7 | Y 2.22 | H 1.99 | C 2.3 | M 2.12 | V 2.2 | T 2.25
H8: E 2.49 | C 1.78 | M 2.28 | S 2.23 | Q 1.83 | Y 2.08 | N 2.24 | G 2.58 | L 2.43 | R 1.98 | T 1.6 | I 2.4 | K 2.59 | V 2.17 | W 1.34 | F 1.59 | P 1.83 | D 1.92 | A 2.06
W6: P 2.21 | C 1.88 | K 1.97 | R 2.13 | Q 2.41 | N 2.18 | V 1.92 | T 3.16 | Y 2.13 | A 1.69 | M 2.15 | I 2.48 | H 1.85 | F 2.3 | E 2.97 | D 2.61 | G 2.14 | S 2.14 | L 2.22
